# US11781164B2, “Demethylation of reticuline and derivatives thereof with fungal cytochrome P450” (priority 2017, dated 2023)
# System: thebaine
# Experiment: Demethylation of thebaine by new cytochrome P450 fungal and plant homologs co-expressed with CPRs in S. cerevisiae
# Details: 0.5 mM thebaine, SC or DELFT media pH 7, 72 h; for Northebaine production: 30° C., co-expressed with Cel_CPR_co, Tp_CPR_5866, Tp_CPR_DN10898 or POR1
molecule,measurement,value
"CYPDN17: cytochrome P450 homolog A0A2G4SQ34 from Rhizopus microsporus, codon-optimized (protein, listed as Rhizopus microsporus) MDHLIQVYNSSTQVLIPVLQKRSKASYITAAIALIIAQRLYSYFRVPKHLRGFPKLPYFGIAKSLLTRESPRERVKKYVLPIIDENDGFYISKIPFGWMLYIANPVAAKQLLLKSSGFPKNHGLLDNMGENLFVEFIGKDNVALSNGDTWKRQRKVMNPAFHHSLPIKTMSKVVFSLISAIEQANGTIPVASAMQNFTLDTLGLAIFGFDFKALQGDPDEWTKTYRFVSDCIFDPVINVFSSYSFIIDRIYPRRRRGAIATKKLSEKFLKIAQQKRKEIKSGAYADVPDNEKDLLTLMLEAEEKGDTWTSEDELRHNIAILFVAGHDTTAHALSFCFYHLAKNKDVQQKLRKEVLSILGDKPVDVVPTVEQLKNMQYLNMVIKENLRINSPADMLFSRDVKEDTILANTLIPKGTVVTINIEALHYNPRLWHNPDQFDPERFAPGGEHEKHEGMTWLPFSNGTRQCLGMNFSLFEQRLVIAMILKKYEISIPEDSIHRDHIVSDIPFNGAPKSLKLTFTKRH",O-demethylation activity compared to the positive control Ps_CODM_co,substantially higher
same,"O-demethylation activity, converting thebaine to oripavine",display 0-demethylation activity
same,nororipavine production in the presence of thebaine,detected
same,Northebaine production,+
"CYPDN11: cytochrome P450 homolog A0A068SB73 from Lichtheimia corymbifera, codon-optimized (protein, listed as Lichtheimia corymbifera) MAVASPQIKNMVTMDRLQDIYSTVSQHVVAHASAVTSRQRKISISAAVALVAFYTVYKVVTPPANLRHIPSMGFFSYLNAFLRGKQLHDISKNVVLPHAVNVDNGVYLRFDILGWTVHIARPEAAKRFLLKSDIFPKADMISERGNTLFGKFVFNRNIVMLNGDDWKAQRKVANPAFHRAMPVELFGRLTQKTLKKMEEEMDGGTLNFHDITERYTLEVIGLAGFEFEFGAIENPKSEWVDRYQRLIEATFNPWFIAFPNLDMRYRFLFPSRKRLHREMDAFLDKMSQVITHKRELLNHQKTTVPESERDILTLMIEAEKNGEGSMTNEELQNNLLVFFIAGHDTTSLALSYAAYYLAVNPDVQRKAREEAIRVLGDAPEDVMPTVEQTRQLTYINMVIKETLRMSPPLATIPVREASEDTELCGTFIPKGTRTFLDIYEIQHNPTVWKDPETFKPERFKPGGEAEELAGSGMSWLPFSNGSRQCIGLNFSLVEQRVFLPMLLRKYEWHLPEDSIHKERIQTMGLAVIKPKDLKLTFKKRY",Northebaine production,+
"CYPDN12: cytochrome P450 homolog A0A1C7N669 from Choanephora cucurbitarum, codon-optimized (protein, listed as Choanephora cucurbitarum) MFTETALQIYHQMAEKVLPILKRQPKSSYIGAALVFLLVAEIRRQLSVPKHLKKFPTIGVFTLMKSFMRNDSVIERHNRLVAPIVKQGHKFYAAKIPFDWSLSIVDPEIAKIMLMKSDAFPKSQGFTRKLGDSSLIVRFTGRDNVSISNGHVWKRQRKFMNPAFRRSTPIKTFGELTLKFFDCVDEQPQDFPAAIKLKNYTLDALGIAAFDFDFKSLSGDPEGWTEIYNVIMKGMFDPWVFLFGKMEFILQYIIPSKRECIKSVVKFNKMLVEMADKRRQEIQNGKKLNTPNSEKDLLTLMIEAEMEEGIMTTNEELRENIALFFLAGQDSTGNSLSFCLYHLAKNKHVQDKLRREIMSVMGDRDLDAIPTVEDFKDMPYLNMVIKENLRLSGPADRFLDRVVAEDIVLGGELIPKGTLITVDVASIHYNPEYWHDPEVFIPERFEPNGEFDQHAGVAWLPFSNGARQCIGMNFSLAEQRVFLTMLLRRYEVGISKDSIHYDSIVYEQSFTFAPSSLTLNFTKLN",Northebaine production,+
"CYPDN14: cytochrome P450 homolog A0A168T1R5 from Absidia glauca, codon-optimized (protein, listed as Absidia glauca) MPIVNALQTYSYEEPINFLKDVWLNRLFPAGTSNRKKAALLTLGATIALVCRTVYRLYRVPRSLRHIPAVGYVAMLRSILKREDATTRAMTIFQPAMKKGNGVFLVNFPLEWSIYVAEPLAAKAVLMKSDNFPKSIDFIHALGKENPVVKFFGTDNVALVNGEQWKRQRKVMNPAFHRAMPVQMFGRLLQKGFKNIEEQGHQVAALDFFQRLTLDALGHAVFGFDFGALNDREAVWTVTYESIRLNLRNPLAFAFPSMDWLLKYVIPGRLQMAASVDKLNGLMMDMIKEKRIKLLESQAQDDTPENEKDLLTLMLEAEQRGEGTTNDEELRSNMAVFFLAGHETTANTMSFCLYNLAMDKSVQEKARQEVIKVLGDEPEDVLPRNEELRQIPYLDMILKENLRRFGPASMLNARKTVEDFDMNGTFIPKNTSVIVETNALHHNPEVWKNPEQFDPERFAPGGEHETSHEGMAWLPFSSGSRGCLGMNFSMAEQRVFLAMLLRKYEWDLPKDSIHKNGIQIGNFQNACPDSLKIQFTPRY",Northebaine production,+
"CYPDN8: cytochrome P450 homolog A0A0C7AZL4 from Rhizopus microsporus, codon-optimized (protein, listed as Rhizopus microsporus, codon-optimized) MDHLIQVYNSSTQVLIPVLQKRSKASYITAAIALIIAQRLYSYFRVPKHLRGFPKLPYFGIAKSFFAKESPRERVKKYILPIINERDGFYISNIPFGWMLYVTNPIAAKQILLKSNGFPKNHGLLEDMGENLFIEFIGKDNVVLTNGDTWKRQRKVMNPAFHHSLPIKTMSNVVFSLISVIDQANGTVPVASTMQNFTLDTLGLAIFGFDFKALQGDGDEWTKTYRLVSDCLFDPIINVFSSYSFIFDRIYPRRRRGAMATRKLGEKFLEIAQQKRMEIKSGAFADVPDNEKDLLTLMLEAEEKGDVWTSEDELRHNIAVLFLAGHDTTAHALSFCFYHLAKNKDIQQKLRKEVLDLLGDEPVDVVPTVEQLKDMQYLNMVIKENLRMNSPADMLFSRDVQEDIVLANTFIPKGTVISINIEALHCNPKLWHNPDQFDPERFAPGGEHEQHEGMTWLPFSNGTRQCLGMNFSLFEQRLVIAMILKKYEISIPEDSIHRNHIINDMPFNVAPKSLELTFTKRY",O-demethylation activity compared to the positive control Ps_CODM_co,substantially higher
same,"O-demethylation activity, converting thebaine to oripavine",display 0-demethylation activity
same,nororipavine production in the presence of thebaine,detected
same,Northebaine production,+
"CYPDN16: cytochrome P450 homolog A0A1X2HFU1 from Syncephalastrum racemosum, codon-optimized (protein, listed as Syncephalastrum racemosum) MTQLTTPDTLGKLLAIYRQTPASRRASWIGWAVAATVIASQLYKTLVPPSNLPNLPTINYFRLLSSFLRRDSPTIRSQEILIPALEKHEQKKAYLAKLPLTWTVFLVDPIAAKIFLMKMDIFPKIKETIDALDSQHPIVEFFGRENVAISVGEAWRNQRKVMNPAFRRAMPISIFGNLMFKVFKNIEENKPVIAIDLMQAFTLDALGRAAFSFDFHALDDQHSIWVETYEIIRQSLRNPANAVLARYNFITKYLMPGRAKQKAATHKLNSLLLEMASRKRAELEKHPELRELPDSEKDLLTLMVEADMESGDDPTSAELLRANLSVFFLAGHDTTANTLSFWLYHMAVNKDVQAKAREEVIKILGDGPEDVMPTADQCKQMTYLDCIIKENLRLLGPASQLIPRMATEDVDLNGIFIPKGTRVTVDMHTMHYSPMLWKDPGVFKPDRFLDEGEHSQHRGLAWLPFSSGGRQCLGMNFSLTEQRVVMSMMLRKYTWELPADSIHRDGVKLNEVNTVAPRTLSIIFQQRYH",Northebaine production,+
"CYPDN13: cytochrome P450 homolog A0A1X2HZE4 from Absidia repens, codon-optimized (protein, listed as Absidia repens) MGTSYKRKAAYVTIGAAVVLLFRSIYGFYYVPKSLRHLPCVGYRELAYSIMKREDAATRARSVLGQAIKEKNGAFVAKFPMEWTVFLTSPRTIQAVLLKSDKFPKTYDMFHALGESSPFVKFLGIKNVGFSNGDDWKRQRKVMNPAFQRSVPVEMFGKLMQKGILAIEKQGYEVRALDFFERITLDSIGIFLFSFDFGSLDNPNSVWSLTYDTIRRGIKNPALTVFPQLDCLLKYVTPGRRHLDQCVTKLNNLLMEVAKEKRRQVQSPSDKLIPDSEKDLLTLILEAELRGDGSASDEELRGNLALFFLAGHETTASAMCFCLYNLAMNKDIQEKARKEVLEVLGDEPVDVRPDIQDLKQFRYMDMILHENLRRFGPAAMLLPRKSEEDFVADGILIPKNTPVVIDLNTMHHNPQVWKDPEIFDPERFAPGGEYEANGEKMAWLPFSSGSRVCIGKSFSMAEQRVFLSMLLKKYEWDFPDDSIHRDGIKMENFENNAPESLSFRFHPRY",Northebaine production,+
"CYPDN9: cytochrome P450 homolog A0A1X2HQ99 from Syncephalastrum racemosum, codon-optimized (protein, listed as Syncephalastrum racemosum, codon-optimized) MFRPPAGLPKLPIINYFRLLWALYRKESPTRRSQRLILPALQKHNAKAYLAKVPYTWTVYLVDPVAVKTFLMRNGTFPKTMESIDAFDQSHPNVQFWGRENLGFSVGDSWKRQRKIIFPAFRRAMPVQLFGELVPKMFDLIDKEHSTIAIDLMQRFTLDALGLAAFSFDFHALDNHNNEWEVAYEMIRKELVSPLTNMLARYDYILKYIIPGRAEKQAAVSKINHLLSDIANERRKMIKRNPDMLKVPDSEKDLLTLMLESDLENSDDPASEELIRANLATFFLAGHDTTANTLSFWLYHLAMYKDIQKKAREEVIETMGGAPEDIVPTAEQLKKMKYMDCIIKENLRFMGPALELFPRIAKEDYNLNGIFIPKGTRVSVDLHTLHHHPDVWKEPERFDPLRFVENGEHSKHEGLSWIAFSSGARVCIGQNFSLVEQRVVMSMLLRRYEWDIPEDSIHREGLQLKDTNNQAPRSLEIVFKKRY",Northebaine production,−
"CYPDN10: cytochrome P450 homolog A0A0B7NB52 from Parasitella parasitica, codon-optimized (protein, listed as Parasitella parasitica) MAIENFMQSYNRAIENVLPILRKRSKASYIGMAIMCIVIKQVYSAYSVPKHLQRFPKVSFLSMIRSYLIKEAVVERTKRLVTPLTDAGHGFYVCKIPLTWTVFVTDPIAAKTLLLKTEFFPKSHAFFDALGDNSPAVQFLGRENVAASNGEIWKKQRKFMNPAFLRSSPVKTFSSVTHNLIKVIETQSDAVPIANCMKAFTIDALGLSAFGFDFQSLNGDPEGWTETYNIAIAGLFDPFINIFVKVDFMMNYISSKRKRINKAITRFNSMLEDLANKRRQEILNGETLGVPENEKDLLTLMIEADIREGSRTTSTELRHNIALFFLAGHDTTAHTLAFCLYNLAKNKHVQAKARAEVLDILGDEPKDVDPTMEDLKRMDYLNMVIKENLRRCGPVDKLLSRDTAEDIDLNGTLIPKGQKISIDFNSIHMNPKLWHNPEEFVPERFEPGGEFDQHTGFTWLPFSHGSRQCIGMNFSLTEQKVLLSMICKRAIEEI",Northebaine production,+
